In publication PMC2148210 (The Journal of Cell Biology, 1999):

Molecular target: microtubules assembled from bovine brain phosphocellulose-tubulin with taxol (bovine, UniProt Q6B856 1-445)
Test: co-sedimentation

Sequence of microtubules assembled from bovine brain phosphocellulose-tubulin with taxol (Q6B856 whole entry, looked up): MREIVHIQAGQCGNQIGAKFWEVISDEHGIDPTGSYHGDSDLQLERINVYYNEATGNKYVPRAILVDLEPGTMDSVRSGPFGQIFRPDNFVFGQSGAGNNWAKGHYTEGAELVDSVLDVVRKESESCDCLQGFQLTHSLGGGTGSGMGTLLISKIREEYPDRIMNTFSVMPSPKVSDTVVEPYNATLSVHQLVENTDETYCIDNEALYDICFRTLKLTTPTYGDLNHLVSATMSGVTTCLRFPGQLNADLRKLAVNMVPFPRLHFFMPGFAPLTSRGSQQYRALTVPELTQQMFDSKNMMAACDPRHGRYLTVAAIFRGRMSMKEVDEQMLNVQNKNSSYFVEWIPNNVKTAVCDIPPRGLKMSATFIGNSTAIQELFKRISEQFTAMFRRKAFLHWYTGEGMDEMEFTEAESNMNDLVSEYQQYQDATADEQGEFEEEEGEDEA

B1: GMAP-210 (Golgi microtubule-associated protein 210), endogenous (natural protein, human (endogenous in HeLa), UniProt Q15643 1-1979, looked up)
chain: MSSWLGGLGSGLGQSLGQVGGSLASLTGQISNFTKDMLMEGTEEVEAELPDSRTKEIEAIHAILRSENERLKKLCTDLEEKHEASEIQIKQQSTSYRNQLQQKEVEISHLKARQIALQDQLLKLQSAAQSVPSGAGVPATTASSSFAYGISHHPSAFHDDDMDFGDIISSQQEINRLSNEVSRLESEVGHWRHIAQTSKAQGTDNSDQSEICKLQNIIKELKQNRSQEIDDHQHEMSVLQNAHQQKLTEISRRHREELSDYEERIEELENLLQQGGSGVIETDLSKIYEMQKTIQVLQIEKVESTKKMEQLEDKIKDINKKLSSAENDRDILRREQEQLNVEKRQIMEECENLKLECSKLQPSAVKQSDTMTEKERILAQSASVEEVFRLQQALSDAENEIMRLSSLNQDNSLAEDNLKLKMRIEVLEKEKSLLSQEKEELQMSLLKLNNEYEVIKSTATRDISLDSELHDLRLNLEAKEQELNQSISEKETLIAEIEELDRQNQEATKHMILIKDQLSKQQNEGDSIISKLKQDLNDEKKRVHQLEDDKMDITKELDVQKEKLIQSEVALNDLHLTKQKLEDKVENLVDQLNKSQESNVSIQKENLELKEHIRQNEEELSRIRNELMQSLNQDSNSNFKDTLLKEREAEVRNLKQNLSELEQLNENLKKVAFDVKMENEKLVLACEDVRHQLEECLAGNNQLSLEKNTIVETLKMEKGEIEAELCWAKKRLLEEANKYEKTIEELSNARNLNTSALQLEHEHLIKLNQKKDMEIAELKKNIEQMDTDHKETKDVLSSSLEEQKQLTQLINKKEIFIEKLKERSSKLQEELDKYSQALRKNEILRQTIEEKDRSLGSMKEENNHLQEELERLREEQSRTAPVADPKTLDSVTELASEVSQLNTIKEHLEEEIKHHQKIIEDQNQSKMQLLQSLQEQKKEMDEFRYQHEQMNATHTQLFLEKDEEIKSLQKTIEQIKTQLHEERQDIQTDNSDIFQETKVQSLNIENGSEKHDLSKAETERLVKGIKERELEIKLLNEKNISLTKQIDQLSKDEVGKLTQIIQQKDLEIQALHARISSTSHTQDVVYLQQQLQAYAMEREKVFAVLNEKTRENSHLKTEYHKMMDIVAAKEAALIKLQDENKKLSTRFESSGQDMFRETIQNLSRIIREKDIEIDALSQKCQTLLAVLQTSSTGNEAGGVNSNQFEELLQERDKLKQQVKKMEEWKQQVMTTVQNMQHESAQLQEELHQLQAQVLVDSDNNSKLQVDYTGLIQSYEQNETKLKNFGQELAQVQHSIGQLCNTKDLLLGKLDIISPQLSSASLLTPQSAECLRASKSEVLSESSELLQQELEELRKSLQEKDATIRTLQENNHRLSDSIAATSELERKEHEQTDSEIKQLKEKQDVLQKLLKEKDLLIKAKSDQLLSSNENFTNKVNENELLRQAVTNLKERILILEMDIGKLKGENEKIVETYRGKETEYQALQETNMKFSMMLREKEFECHSMKEKALAFEQLLKEKEQGKTGELNQLLNAVKSMQEKTVVFQQERDQVMLALKQKQMENTALQNEVQRLRDKEFRSNQELERLRNHLLESEDSYTREALAAEDREAKLRKKVTVLEEKLVSSSNAMENASHQASVQVESLQEQLNVVSKQRDETALQLSVSQEQVKQYALSLANLQMVLEHFQQEEKAMYSAELEKQKQLIAEWKKNAENLEGKVISLQECLDEANAALDSASRLTEQLDVKEEQIEELKRQNELRQEMLDDVQKKLMSLANSSEGKVDKVLMRNLFIGHFHTPKNQRHEVLRLMGSILGVRREEMEQLFHDDQGGVTRWMTGWLGGGSKSVPNTPLRPNQQSVVNSSFSELFVKFLETESHPSIPPPKLSVHDMKPLDSPGRRKRDTNAPESFKDTAESRSGRRTDVNPFLAPRSAAVPLINPAGLGPGGPGHLLLKPISDVLPTFTPLPALPDNSAGVVLKDLLKQ
  fold increase of bound protein, sheared against unsheared microtubules: 1.8 fold
